Test results reported in paper PMC8713982, “Structure and RNA template requirements of Arabidopsis RNA-DEPENDENT RNA POLYMERASE 2”.

Target: T1, TF-RDR2-RRM (Arabidopsis thaliana, UniProt O82504 1-100)
T1 sequence: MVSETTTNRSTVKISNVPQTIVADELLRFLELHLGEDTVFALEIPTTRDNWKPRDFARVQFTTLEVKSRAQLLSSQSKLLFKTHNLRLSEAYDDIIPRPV
Assay: EMSA; protein 1, 3, 9 uM; RNA 2 uM; 2 mM Mg2+; 25 mM Hepes-KOH pH 7.6, 50 mM NaCl, 2 mM MgCl2, RNase inhibitor, 30 min room temperature; 6% native PAGE
Conditions: protein: recombinant; tags: N-terminal trigger factor (TF) fusion, pCold-TF; label: 5' Alexa647; single strand

B1: 37-nt ssRNA (ssRNA)
RNA: UCCGUCCGUCUGCUGUGGGUCUCCUUUCUCCUUCUUC
binding result: binds
